Source: patent US20070116718A1

Columns and labels:
[1] = target: bacteriophage displaying the DO11.10 scTCR/gene VIII fusion protein (vector pKC51) (murine; fd tet bacteriophage); assay: phage panning on biotin antibody on neutrAvidin wells, phage diluted 1:50,000 in irrelevant phage
[2] = target: single-chain MHC class II I-A^d complex with OVA 323-339 peptide, immobilized (chicken; murine) (UniProt P01012); assay: cell-based or functional assay

Sequence of bacteriophage displaying the DO11.10 scTCR/gene VIII fusion protein (vector pKC51) (murine; fd tet bacteriophage) (main, as listed by the source): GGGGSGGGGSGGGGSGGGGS

| Substance | fold enrichment after a single round of panning [1] [fold] | level of IL-2 inhibition, DO11.10 group against gD12 hybridoma group [2] [fold] |
| --- | --- | --- |
| anti-V-β8.2 monoclonal antibody MR5-2 (PharMingen) | 5000 | – |
| bacteriophage displaying the DO11.10 scTCR/gene VIII fusion protein (vector pKC51) | – | 8 to 10 |
| hamster anti-mouse αβ TCR antibody H57-597 (ATCC HB-218) | 5000 | – |
